We go through nine substances from patent US20210046160A1, “Immuno Oncology Combination Therapies With IL-2 Conjugates” (Synthorx, Inc., priority 2019, published 2021).

Common to all, as to assay: cell-based or functional assay
For assay [1], the target named is IL-2βγ receptor complex on recombinant human U2OS cells (PathHunter IL-2 Cytokine Receptor assay) (UniProt P14784).
The target in assay [2] is IL-2 receptor αβγ on recombinant human U2OS cells further engineered to express the IL-2Rα subunit (PathHunter IL-2 Cytokine Receptor assay) (UniProt P01589).
Assay [3] has as its target IL-2 receptor signaling complexes on human primary CD8+ T cells and NK cells (human) (UniProt P14784).
Assay [4] deals with IL-2 receptor signaling complexes on human primary Treg cells (IL-2 Rα expressing) (human) (UniProt P01589).
IL-2 receptor signaling complexes on human primary Treg cells (IL-2 Rα expressing) (human), sequence (P01589 22-272, chain 1 of 3): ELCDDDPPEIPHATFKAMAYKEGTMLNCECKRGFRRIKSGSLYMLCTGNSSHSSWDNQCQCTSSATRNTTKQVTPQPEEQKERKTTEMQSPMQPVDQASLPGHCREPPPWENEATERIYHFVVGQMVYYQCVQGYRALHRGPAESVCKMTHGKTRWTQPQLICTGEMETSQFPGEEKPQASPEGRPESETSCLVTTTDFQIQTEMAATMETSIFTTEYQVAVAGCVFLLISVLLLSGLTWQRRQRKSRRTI
IL-2 receptor signaling complexes on human primary Treg cells (IL-2 Rα expressing) (human), sequence (P14784 27-551, chain 2 of 3, further chain): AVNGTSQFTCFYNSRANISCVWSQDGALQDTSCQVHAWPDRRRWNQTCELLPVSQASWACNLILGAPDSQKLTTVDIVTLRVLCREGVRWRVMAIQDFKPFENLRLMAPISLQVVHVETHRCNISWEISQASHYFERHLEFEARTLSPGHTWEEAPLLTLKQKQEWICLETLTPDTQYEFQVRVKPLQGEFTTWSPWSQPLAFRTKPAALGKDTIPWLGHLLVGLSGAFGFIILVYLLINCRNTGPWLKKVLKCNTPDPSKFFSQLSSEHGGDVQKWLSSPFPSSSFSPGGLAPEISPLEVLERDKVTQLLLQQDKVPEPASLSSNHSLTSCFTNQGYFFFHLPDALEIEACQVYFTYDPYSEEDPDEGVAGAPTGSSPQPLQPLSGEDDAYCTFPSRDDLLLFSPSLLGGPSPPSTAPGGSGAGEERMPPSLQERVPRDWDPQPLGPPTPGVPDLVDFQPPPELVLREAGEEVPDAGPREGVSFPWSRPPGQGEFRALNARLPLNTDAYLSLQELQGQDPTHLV
IL-2 receptor signaling complexes on human primary Treg cells (IL-2 Rα expressing) (human), sequence (P31785 23-369, chain 3 of 3, further chain): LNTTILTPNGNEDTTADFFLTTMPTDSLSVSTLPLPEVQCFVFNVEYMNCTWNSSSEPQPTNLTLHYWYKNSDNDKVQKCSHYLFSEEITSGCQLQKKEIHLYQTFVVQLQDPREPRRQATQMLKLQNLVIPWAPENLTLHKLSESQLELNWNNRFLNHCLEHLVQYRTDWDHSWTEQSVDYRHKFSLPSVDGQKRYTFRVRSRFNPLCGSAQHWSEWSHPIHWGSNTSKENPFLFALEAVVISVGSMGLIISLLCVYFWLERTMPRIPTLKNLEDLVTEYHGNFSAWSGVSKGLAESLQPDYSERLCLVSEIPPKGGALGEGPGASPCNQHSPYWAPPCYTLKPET

IL-2 receptor signaling complexes on human primary CD8+ T cells and NK cells (human), sequence (P14784 27-551, chain 1 of 2): as the sequence (P14784 27-551, chain 2 of 3, further chain) above
IL-2 receptor signaling complexes on human primary CD8+ T cells and NK cells (human), sequence (P31785 23-369, chain 2 of 2, further chain): as the sequence (P31785 23-369, chain 3 of 3, further chain) above
F42_30kD, sequence (P60568 other isoform, or with tags, fused parts or gaps limits assumed): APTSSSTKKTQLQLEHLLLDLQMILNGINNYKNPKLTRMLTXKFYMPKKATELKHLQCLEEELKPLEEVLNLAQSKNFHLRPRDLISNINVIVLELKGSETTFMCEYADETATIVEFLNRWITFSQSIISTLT
K43_30kD, sequence (P60568 other isoform, or with tags, fused parts or gaps limits assumed): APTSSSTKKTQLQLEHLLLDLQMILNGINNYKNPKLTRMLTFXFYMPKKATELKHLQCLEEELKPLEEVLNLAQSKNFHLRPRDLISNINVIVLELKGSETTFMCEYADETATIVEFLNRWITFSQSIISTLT
K35 (10 kD PEGylated IL-2 conjugate, Table 2), sequence (P60568 other isoform, or with tags, fused parts or gaps limits assumed): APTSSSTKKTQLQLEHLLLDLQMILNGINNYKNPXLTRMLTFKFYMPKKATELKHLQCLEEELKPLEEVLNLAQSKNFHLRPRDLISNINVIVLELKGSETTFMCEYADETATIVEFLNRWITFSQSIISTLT

Take “K35 (10 kD PEGylated IL-2 conjugate, Table 2) (from UniProt P60568 21-153) (ligand)”: the EC50 (nM), PathHunter IL-2 Cytokine Receptor assay, βγ in assay [1] amounted to 6.75 nM.
Turning to “F42 (10 kD PEGylated IL-2 conjugate, Table 2) (from UniProt P60568 21-153) (ligand)”, the EC50 (nM), PathHunter IL-2 Cytokine Receptor assay, βγ in assay [1] turned out to be 6.09 nM. Besides, in assay [2], the EC50 (nM), PathHunter IL-2 Cytokine Receptor assay, αβγ was 0.515 nM.
For the substance “Y45* (30 kD PEGylated IL-2 conjugate, Table 2) (from UniProt P60568 21-153) (ligand)”, the EC50 (nM), PathHunter IL-2 Cytokine Receptor assay, βγ in assay [1] is 9.06 nM. In assay [2], the EC50 (nM), PathHunter IL-2 Cytokine Receptor assay, αβγ was 0.11 nM.
Regarding “K43_30kD (from UniProt P60568 21-153) (ligand)”, in assay [3], the EC50 for pSTAT5 signaling; CD8+ T Cells worked out at 50500 pg/mL and the EC50 for pSTAT5 signaling; NK Cells was 9000 pg/mL. The same substance registered an EC50 for pSTAT5 signaling; Treg Cells in assay [4] of 4800 pg/mL.
“K43 (10 kD PEGylated IL-2 conjugate, Table 2) (from UniProt P60568 21-153) (ligand)”: the EC50 (nM), PathHunter IL-2 Cytokine Receptor assay, βγ in assay [1] worked out at 9.84 nM. In addition, the EC50 (nM), PathHunter IL-2 Cytokine Receptor assay, αβγ in assay [2] turned out to be 0.131 nM.
Regarding “V69* (30 kD PEGylated IL-2 conjugate, Table 2) (from UniProt P60568 21-153) (ligand)”, the EC50 (nM), PathHunter IL-2 Cytokine Receptor assay, βγ in assay [1] amounted to 9.99 nM. The EC50 (nM), PathHunter IL-2 Cytokine Receptor assay, αβγ in assay [2] came to 0.083 nM.
For “F42_30kD (from UniProt P60568 21-153) (ligand)”, in assay [3], the EC50 for pSTAT5 signaling; CD8+ T Cells amounted to 108000 pg/mL and the EC50 for pSTAT5 signaling; NK Cells came out at 16400 pg/mL. In assay [4], this substance registered an EC50 for pSTAT5 signaling; Treg Cells of 36900 pg/mL.
For the substance “R38 (10 kD PEGylated IL-2 conjugate, Table 2) (from UniProt P60568 21-153) (ligand)”, the EC50 (nM), PathHunter IL-2 Cytokine Receptor assay, βγ in assay [1] came out at 4.16 nM. For the same substance, the EC50 (nM), PathHunter IL-2 Cytokine Receptor assay, αβγ in assay [2] stood at 0.165 nM.
In the same order, the values of “T41 (10 kD PEGylated IL-2 conjugate, Table 2) (from UniProt P60568 21-153) (ligand)” are 6.37 nM and 0.0489 nM.
